This note sets out measurements from patent US20250320281A1.

The IC50 is the concentration that gives 50% inhibition. Read a high IC50 as a need for much substance.

Common to all, as to test: cell-based or functional assay
Test [1] concerns the target HIV-1 Env of isolate MGRM-G-028 (HIV-1).
In test [2] the target is HIV-1 Env of isolate MGRM-G-025 (HIV-1).
Test [3] deals with HIV-1 Env of isolate MGRM-AE-006 (subtype AE) (HIV-1).
The target in test [4] is aMLV envelope (negative control pseudovirus).
Test [5] concerns the target HIV-1 APV17 Env (pseudovirus, clade B) (HIV-1).
Test [6] deals with HIV-1 Env of isolate VLGCB3 (subtype B pseudovirus) (HIV-1).
For test [7], the target named is HIV-1 Env of isolate MGRM-D-001 (clade D), on pseudovirus (HIV-1).
Test [8] has as its target HIV-1 Env of isolate MGRM-F1-004 (pseudovirus) (HIV-1).
Test [9] addresses HIV-1 Env of isolate MGRM-F1-006 (pseudovirus) (HIV-1).
Test [10] concerns the target HIV-1 Env of isolate MGRM-D-014 (pseudovirus) (HIV-1).
Test [11] has as its target HIV-1 Env of isolate MGRM-D-022 (pseudovirus) (HIV-1).
Test [12] addresses HIV-1 APV6 Env (pseudovirus, clade B) (HIV-1).
The target in test [13] is HIV-1 Env of isolate MGRM-F1-014 (HIV-1).
In test [14] the target is HIV-1 Env of isolate MGRM-Chronic-B-023 (subtype B pseudovirus) (HIV-1).
The target in test [15] is HIV-1 Env of isolate MGRM-Chronic-B-003 (subtype B pseudovirus) (HIV-1).
Test [16] addresses HIV-1 Env of isolate 92UG114 (pseudovirus) (HIV-1).
For test [17], the target named is HIV-1 Env of isolate MGRM-AG-002 (HIV-1).
In test [18] the target is HIV-1 Env of isolate 92TH021 (pseudovirus) (HIV-1).
Test [19] deals with aMLV envelope protein on pseudovirus (negative control).
In test [20] the target is HIV-1 Env of pseudovirus CMU02 (clade CRF01_AE) (HIV-1).
The target in test [21] is HIV-1 Env of isolate THR0.18 (Acute), clade B, on pseudovirus (HIV-1).
Test [22] has as its target HIV-1 Env of pseudovirus MGRM-AE-004 (clade CRF01_AE) (HIV-1).
The target in test [23] is HIV-1 Env of pseudovirus MGRM-F1-020 (HIV-1).
Test [24] addresses HIV-1 envelope glycoprotein (Env) of isolate 94UG103, clade A (HIV-1).
For test [25], the target named is HIV-1 Env of isolate MGRM-Chronic-B-002, clade B, on pseudovirus (HIV-1).
Test [26] has as its target HIV-1 envelope glycoprotein (Env) of isolate MGRM-A-014, clade A (HIV-1).
Test [27] deals with HIV-1 Env of isolate MGRM-D-011 (clade D pseudovirus) (HIV-1).
Test [28] concerns the target HIV-1 APV-6 envelope glycoprotein (Env) on pseudovirus (HIV-1).
The target of test [29] is HIV-1 Env of pseudovirus MGRM-AE-002 (clade CRF01_AE) (HIV-1).
The target in test [30] is HIV-1 Env of isolate 98CN006 (HIV-1).

A value given as a limit tells only on which side of the number the result lay.

4980_N08 (PGT-143) (antibody), sequence (VH): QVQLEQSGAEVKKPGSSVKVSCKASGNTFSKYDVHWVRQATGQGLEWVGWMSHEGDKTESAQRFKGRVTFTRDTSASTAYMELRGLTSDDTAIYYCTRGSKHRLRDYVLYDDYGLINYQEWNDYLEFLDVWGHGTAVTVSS
4980_N08 (PGT-143) (antibody), sequence (VL): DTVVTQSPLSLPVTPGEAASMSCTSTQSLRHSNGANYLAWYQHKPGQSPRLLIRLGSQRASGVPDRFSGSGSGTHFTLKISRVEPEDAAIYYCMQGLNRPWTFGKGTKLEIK
4993_K13 (PGT-141) (antibody), sequence (VH): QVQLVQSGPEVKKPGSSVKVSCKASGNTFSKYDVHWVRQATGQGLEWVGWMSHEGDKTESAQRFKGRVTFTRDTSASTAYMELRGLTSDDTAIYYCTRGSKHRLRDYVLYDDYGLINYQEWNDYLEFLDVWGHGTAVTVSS
4993_K13 (PGT-141) (antibody), sequence (VL): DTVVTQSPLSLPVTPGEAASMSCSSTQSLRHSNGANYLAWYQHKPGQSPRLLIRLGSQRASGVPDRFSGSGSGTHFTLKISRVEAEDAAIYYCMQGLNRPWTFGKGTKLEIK
4995_E20 (PGT-142) (antibody), sequence (VH): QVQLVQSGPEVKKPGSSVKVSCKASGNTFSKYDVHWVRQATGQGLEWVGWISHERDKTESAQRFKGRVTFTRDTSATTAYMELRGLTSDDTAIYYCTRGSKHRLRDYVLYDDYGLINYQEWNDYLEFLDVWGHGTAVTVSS
4970_K22 (PGT-144) (antibody), sequence (VH): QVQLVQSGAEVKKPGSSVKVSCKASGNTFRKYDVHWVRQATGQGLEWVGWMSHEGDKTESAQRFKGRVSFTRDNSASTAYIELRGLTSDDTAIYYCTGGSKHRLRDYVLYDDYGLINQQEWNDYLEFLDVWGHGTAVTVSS
4970_K22 (PGT-144) (antibody), sequence (VL): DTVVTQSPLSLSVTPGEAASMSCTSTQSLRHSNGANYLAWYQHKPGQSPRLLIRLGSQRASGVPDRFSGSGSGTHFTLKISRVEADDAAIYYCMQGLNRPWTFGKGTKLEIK

With 4970_K22 (PGT-144) (antibody), the IC50 (µg/mL), pseudovirus neutralization in [1], in test [2], in test [3] and in [4] was above 50 µg/mL each time. Moreover, in test [4], the IC50 (neutralizing activity, pseudovirus) is above 10 µg/mL.
On to 4858_P08 (PGT-123) (antibody), for which the IC50 neutralization stood at 0.18 µg/mL in [5] and 0.0328 µg/mL in [12]. The IC50 (µg/mL), pseudovirus neutralization in test [6] was 0.004 µg/mL; in test [13], 0.111 µg/mL; in test [14], 0.055 µg/mL; in [15], 0.008 µg/mL. For the same substance, the IC50, pseudovirus neutralization in [7] is 0.215 µg/mL; in [8], 1.78 µg/mL; in test [9], 6.89 µg/mL; in test [10] it was 0.009 µg/mL; in test [11], above 50 µg/mL; in [16], 0.005 µg/mL. In test [17], the 50% inhibitory concentration (IC50) is above 50 µg/mL.
As to 4980_N08 (PGT-143) (antibody), the IC50 (µg/mL), pseudovirus neutralization is 43 µg/mL in test [1], above 50 µg/mL in test [2], above 50 µg/mL in test [3] and above 50 µg/mL in test [4]. The IC50 (neutralizing activity, pseudovirus) in test [4] was above 10 µg/mL.
Consider 5145_B14 (PGT-127) (antibody), for which the IC50 (µg/mL), pseudovirus neutralization in [6] was 0.022 µg/mL; in test [13] it was above 50 µg/mL; in test [14] it was above 50 µg/mL; in [15], 0.12 µg/mL. Also, the Polyclonal Transfectant Neutralization Index in [18] was determined as 0.94. This substance also yielded a Primary Neutralization Index (B cell culture supernatant) in test [18] of 1. Further, the IC50, pseudovirus neutralization in [8] is 0.068 µg/mL; in test [9] it was 7.17 µg/mL; in test [10], 0.393 µg/mL; in test [11] it was above 50 µg/mL; in [16], 7.09 µg/mL. For the same substance, the IC50 in test [17] is above 50 µg/mL.
Turning to 4995_E20 (PGT-142) (antibody), the IC50 (µg/mL), pseudovirus neutralization in [1] is 30.3 µg/mL; in test [2], above 50 µg/mL; in [3], above 50 µg/mL; in test [4], above 50 µg/mL. This substance displayed an IC50 (neutralizing activity, pseudovirus) in test [4] above 10 µg/mL.
For the substance 5123_A06 (PGT-125) (antibody), the IC50 neutralization is 7.31 µg/mL in [5] and 0.0359 µg/mL in test [12]. For the same substance, the IC50 (µg/mL), pseudovirus neutralization in [6] is 0.015 µg/mL; in test [13] it was above 50 µg/mL; in test [14], above 50 µg/mL; in test [15] it was 0.157 µg/mL. In addition, the Polyclonal Transfectant Neutralization Index in test [18] was found to be 50.6. In [18], the Primary Neutralization Index (B cell culture supernatant) came out at 133. Also, the IC50, pseudovirus neutralization is 2.31 µg/mL in test [7]; above 50 µg/mL in test [8]; 0.035 µg/mL in test [9]; above 50 µg/mL in test [10]; 0.04 µg/mL in [11]; 0.349 µg/mL in test [16]. The same substance showed an IC50 in [17] above 50 µg/mL.
5141_B17 (PGT-126) (antibody): the IC50 neutralization stood at 0.501 µg/mL in test [5] and 0.0249 µg/mL in [12]. Also, the IC50 (µg/mL), pseudovirus neutralization is 0.007 µg/mL in [6], above 50 µg/mL in [13], above 50 µg/mL in [14] and 0.041 µg/mL in test [15]. Besides, the Polyclonal Transfectant Neutralization Index in test [18] is 2.74. In [18], this substance registered a Primary Neutralization Index (B cell culture supernatant) of 2.3. Moreover, the IC50, pseudovirus neutralization is 0.0639 µg/mL in test [7]; 0.063 µg/mL in test [8]; 0.078 µg/mL in test [9]; 0.03 µg/mL in [10]; above 50 µg/mL in [11]; above 10 µg/mL in [19]. Besides, the IC50, pseudovirus neutralization in test [16] amounted to 0.038 µg/mL. This substance had an IC80 (pseudovirus neutralization) in test [19] above 10 µg/mL. In test [19], this substance registered an IC90 (pseudovirus neutralization) above 10 µg/mL. The substance also displayed an IC95 (pseudovirus neutralization) in [19] above 10 µg/mL. Moreover, in test [17], the half-maximal inhibitory concentration (IC50) is above 50 µg/mL.
Turning to 4838_L06 (PGT-121) (antibody), the figures for the IC50 (µg/mL), pseudovirus neutralization in test [6], in test [14] and in test [15] were 0.005 µg/mL, 0.005 µg/mL and 0.011 µg/mL, respectively. Further, the IC50, pseudovirus neutralization was 1.67 µg/mL in [8]; 5.33 µg/mL in test [9]; 0.009 µg/mL in test [10]; above 50 µg/mL in [11]; 0.004 µg/mL in test [16]. Further, the concentration for half-maximal inhibition (IC50) in [17] is above 50 µg/mL.
As to VRC01 (antibody), the IC50 (µg/mL), pseudovirus neutralization is 0.164 µg/mL in test [1], 0.292 µg/mL in [2], 4.65 µg/mL in [3] and above 50 µg/mL in [4]. For the same substance, the IC50 in test [13] came to 0.056 µg/mL.
4993_K13 (PGT-141) (antibody): the IC50 (µg/mL), pseudovirus neutralization is 24.9 µg/mL in test [1], above 50 µg/mL in [2], above 50 µg/mL in test [3] and above 50 µg/mL in [4]. In [4], this substance gave an IC50 (neutralizing activity, pseudovirus) above 10 µg/mL.
On to 1496_C09 (PG9) (TCN-109) (antibody), for which, in test [1], the IC50 (µg/mL), pseudovirus neutralization amounted to 0.891 µg/mL. Moreover, the IC50 in test [20] came out at 7.69 µg/mL; in test [22], 0.01 µg/mL; in [29], 0.04 µg/mL. The IC50 (µg/ml), pseudovirus neutralization in [21] was 12.4 µg/mL; in [23], 4.55 µg/mL; in [24], 0.24 µg/mL; in test [25], 1.41 µg/mL; in test [26] it was 0.62 µg/mL; in test [27], 0.06 µg/mL. The substance also had an IC50 neutralization in test [12] of 0.214 µg/mL. In test [28], this substance registered an IC50, pseudovirus neutralization of 0.0869 µg/mL.
As to PGV04 (antibody), the IC50 (µg/mL), pseudovirus neutralization in test [1] is 0.352 µg/mL; in test [2] it was 1.61 µg/mL; in [4], above 50 µg/mL. In test [30], this substance gave an IC50 of 1.32 µg/mL.
Take 4877_D15 (PGT-122) (antibody): the IC50 neutralization in [5] was 0.522 µg/mL; in test [12], 0.0851 µg/mL. Moreover, the IC50 (µg/mL), pseudovirus neutralization in [6] is 0.008 µg/mL; in [13], 0.195 µg/mL; in test [14] it was 0.01 µg/mL; in test [15] it was 0.008 µg/mL. In addition, the IC50, pseudovirus neutralization in [7] is 0.867 µg/mL; in test [8] it was 1.29 µg/mL; in [9] it was 3.27 µg/mL; in test [10], 0.012 µg/mL; in [11], above 50 µg/mL; in test [16], 0.011 µg/mL. Further, the IC50 in test [17] is above 50 µg/mL.
